From patent US20250332297A1, “DLL3-SPECIFIC BINDING CONSTRUCTS AND THEIR USE IN RADIOTHERAPY” (MOLECULAR PARTNERS AG, priority 2024, published 2025)

T1: Human DLL3 expressed on cells (HEK293T-hDLL3, NCI-H82, SHP-77, MC38-hDLL3) (human, UniProt Q9NYJ7 27-618)
T1 construct: also called DLL3 endogenously expressed on human cells
T1 sequence: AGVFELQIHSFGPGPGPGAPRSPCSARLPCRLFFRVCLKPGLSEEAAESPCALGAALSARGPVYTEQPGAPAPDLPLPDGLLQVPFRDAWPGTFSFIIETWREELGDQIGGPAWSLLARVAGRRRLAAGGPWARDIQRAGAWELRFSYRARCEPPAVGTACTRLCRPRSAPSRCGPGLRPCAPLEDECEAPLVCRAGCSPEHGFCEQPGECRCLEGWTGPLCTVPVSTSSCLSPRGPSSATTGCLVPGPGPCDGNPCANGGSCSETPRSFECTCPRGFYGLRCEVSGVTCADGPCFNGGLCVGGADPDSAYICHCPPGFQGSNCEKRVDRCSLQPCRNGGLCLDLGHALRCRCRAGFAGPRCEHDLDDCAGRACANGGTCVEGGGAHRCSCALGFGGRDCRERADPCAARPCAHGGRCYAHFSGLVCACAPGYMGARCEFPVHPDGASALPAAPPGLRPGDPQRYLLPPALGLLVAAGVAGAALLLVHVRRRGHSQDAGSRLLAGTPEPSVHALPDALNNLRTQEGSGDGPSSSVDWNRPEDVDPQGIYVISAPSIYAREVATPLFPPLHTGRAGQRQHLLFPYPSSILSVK

T2: hDLL3 ECD-Avi-Fckih (biotinylated extracellular domain of human DLL3, residues 27 to 466, Avi-tag, 3C site, … (human, UniProt Q9NYJ7 27-466, biotinylated at the Avi-tag))
T2 construct: The make-up of the second Fc chain of the knob-into-hole pair is not described; also called bio-DLL3; recombinant human DLL3; not shown: Avi-tag, 3C protease recognition site and Fc knob into hole
T2 sequence: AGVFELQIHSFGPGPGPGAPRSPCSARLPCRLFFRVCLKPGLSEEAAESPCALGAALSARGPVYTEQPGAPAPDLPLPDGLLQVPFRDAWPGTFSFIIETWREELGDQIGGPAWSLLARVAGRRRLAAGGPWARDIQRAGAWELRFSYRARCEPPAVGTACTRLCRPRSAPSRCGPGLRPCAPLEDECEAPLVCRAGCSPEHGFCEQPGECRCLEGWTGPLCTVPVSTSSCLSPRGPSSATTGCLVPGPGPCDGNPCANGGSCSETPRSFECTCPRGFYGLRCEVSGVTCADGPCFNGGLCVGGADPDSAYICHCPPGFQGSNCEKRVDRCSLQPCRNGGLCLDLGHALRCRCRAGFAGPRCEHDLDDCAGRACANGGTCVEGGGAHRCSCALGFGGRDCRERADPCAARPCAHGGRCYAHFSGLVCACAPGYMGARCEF

B1: MAM283 conjugate: SEQ ID NO: 16 conjugated to DOTAM-maleimide, labelled with Pb-212 (natural lead in PK studies) (conjugate)
chain: GSDLGKKLLEAARAGQDDEVRELLKAGADVNAKDYFSHTPLHLAARNGHLKIVEVLLKAGADVNAKDFAGKTPLHLAADAGHLEIVEVLLKAGADVNAQDIFGKTPADIAADAGHEDIAEVLQKAAGSPTPTPTTPTPTPTTPTPTPTGSDLGKKLLAAAADGQDDEVRELLQAGADVNAKDLFGYTPLHLAAWRGHLEIVEVLLEAGADVNAKDAAGETPLHLAAWFGHLEIVEVLLEAGADVNAQDVQGKTPADLAAKEGHEDIAEVLQQAAGSGSC
modifications: DOTAM-maleimide, Pb-212 label; Ankyrin repeat protein with tag (GS-MAM283-tag)
B2: MAM160 (two domain ankyrin repeat protein, N-terminal His6-TEV tag) (designed binder)
chain: MRGSHHHHHHENLYFQDLGKKLLEAARAGQDDEVRELLKAGADVNAKDYFSHTPLHLAARNGHLKIVEVLLKAGADVNAKDFAGKTPLHLAADAGHLEIVEVLLKAGADVNAQDIFGKTPADIAADAGHEDIAEVLQKAAGSPTPTPTTPTPTPTTPTPTPTGSDLGTKLLSAAADGQDDEVRELLQAGADVNAKDLFGYTPLHLAAWRGHLEIVEVLLEAGADVNAKDAAGLTPLHLAAWFGHLEIVEVLLEAGADVNAQDVQGVTPADLAAKEGHEDIAEVLQQAA
notes: also called 2D DARPin

Legend:
[1] = Dose response finding (tolerability) in WT CD1 mice
[2] = Pharmacokinetic analysis in WT BALBc mice (serum, ELISA); type: in vivo, mouse; conditions: 1 mg/kg i.v.
Excerpt: The pharmacokinetic (PK) properties of lead-labelled DARPin (MAM160, MAM279, MAM282, MAM283) conjugates were investigated in mice, including to determine the terminal half-life (or serum half-life) of these conjugates.
In brief, DARPins MAM279, MAM283, MAM160 and MAM282 were conjugated to the chelator DOTAM, via a C-terminal Cysteine containing tag and a connector, as described in Example 3. The conjugates were then labelled with natural lead (Pb). The protein components of the conjugates corresponded to SEQ ID NOs: 15 to 18, respectively. These lead-labelled DARPin conjugates were injected i.v. at 1 mg/kg into WT BALBc mice. Serum was collected 2 min, 10 min, 30 min, 1 h, 4 h, 24 h, 48 h, and 72 h post-injection. DARPins were detected and measured by ELISA. The data were expressed as the DARPin concentration in serum (nmol/L).
In brief, lead-labelled MAM279 conjugate, as described in Example 13, was injected i. at 0.1 mg/kg or at 1 mg/kg into the tail vein of WT BALBc mice. Serum was collected 2 min, 10 min, 30 min, 1 h, 4 h, 24 h, 48 h, and 72 h post-injection for MAM279 conjugate injected at 1 mg/kg, and 2 min, 30 min, 4 h, 24 h, 30 h, 48 h, 72 h, 96 h, and 168 h post-injection for MAM279 conjugate injected at 0.1 mg/kg. DARPins were detected and measured by ELISA. The data were expressed as the DARPin concentration in serum (nmol/L).
In brief, natural lead-labelled MAM279 conjugate, as described in Example 13, was injected i.v. at different doses (0.001 mg/kg, 0.01 mg/kg, 0.1 mg/kg, or 1 mg/kg) into the tail vein of WT BALBc mice. Similarly, unconjugated Rova was injected iv. at 1 mg/kg into the tail vein of WT BALBc mice. Serum was collected 2 min, 10 min, 30 min, 1 h, 4 h, 24 h, 48 h, and 72 h post-injection for MAM279 conjugate injected at 1 mg/kg, and 2 min, 30 min, 4 h, 24 h, 30 h, 48 h, 72 h, 96 h, and 168 h post-injection for MAM279 conjugate injected at 0.1 mg/kg, 0.01 mg/kg and 0.001 mg/kg. Serum was collected 2 min, 30 min, 4 h, 24 h, 30 h, 48 h, 72 h, 96 h, and 168 h post-injection for Rova antibody injected at 1 mg/kg. DARPins and Rova were detected and measured by ELISA. Rova PK characteristics were calculated with time points between 4 h and 168 h and MAM279 conjugate PK characteristics were calculated with time points between 4 h and 72 h. The data were expressed as the DARPin or Rova concentration in serum (nmol/L). Results are shown in FIGS. 19A and 19B and Table 22.

[3] = molecular target: T3, mouse serum albumin (mouse, UniProt P07724 25-608); test: SPR (Bruker Sierra SPR-32), MSA on chip, DARPin as analyte, 1:1 Langmuir fit
T3 construct: also called MSA
Description: (§1) Similarly, a SPR assay was used to determine the binding kinetics to human or mouse serum albumin. […] All analytes (3-fold dilution ranging from 1000-12.35 nM) were injected in succession for 240 s (25 μl/min) and dissociation was recorded for 600 s (25 μl/min).

[4] = molecular target: T4, human serum albumin (human, UniProt P02768 25-609); test: SPR (Bruker Sierra SPR-32), HSA on chip, DARPin as analyte, 1:1 Langmuir fit
T4 construct: also called HSA
Description: as §1

[5] = molecular target: T1, Human DLL3 expressed on cells …; test: flow cytometry titration on HEK293T-hDLL3 cells, without HSA
Description: (§2) Cell binding titration assays were performed for selected His-tagged single domain (1 D) and two domain (2D) designed ankyrin repeat proteins to determine binding to human DLL3 expressed on HEK293T-huDLL3 cells in absence and presence of human serum albumin. […] HEK293T-hDLL3 cells are HEK293T cells that were stably transfected to express human DLL3 on their surface.
(§3) In brief, 1×10⁵ cells/well were resuspended in 100 μl DARPin dilution (500 nM, 1:5 serial diluted) and incubated for 1 h at 4° C. Cells were washed twice with PBS and resuspended in 100 μl anti-DARPin antibody (rabbit anti-DARPin 1.4.8) and LIVE/DEAD fixable cell stain (1:1000, Thermo Fisher #L34957). This step was performed in absence and presence of […] Human Serum Albumin (CSL Behring #150570). After incubation and washing, cells were incubated with detection antibody for 30 minutes (Goat […] IgG (H+L), AF647, Thermo Fisher #21445). Cells were fixed (Paraformaldehyde Solution, LucernaChem) and acquired at Attune N×T (Thermo Life Technologies). Raw fcs files were exported and analyzed using FlowJo software. MFI values of live AF647-positive cells were exported from FlowJo and plotted using GraphPad Prism software.

[6] = molecular target: T1, Human DLL3 expressed on cells …; test: flow cytometry titration on HEK293T-hDLL3 cells, with HSA
Description: as §2, §3

[7] = molecular target: T2, hDLL3 ECD-Avi-Fckih (biotinylated …); test: SPR (ProteOn), biotinylated hDLL3 ECD-Avi-Fckih on chip, DARPin as analyte, 1:1 Langmuir fit
Description: Kinetic binding parameters and binding affinities of two domain (2D) ankyrin repeat proteins comprising an ankyrin repeat domain with binding specificity for DLL3 and an ankyrin repeat domain with binding specificity for serum albumin were determined by surface plasmon resonance (SPR) multi-trace analysis.
In brief, a SPR assay was used to determine the binding kinetics to the target human DLL3. The data were generated using BioRad ProteOn instrument in SPR running buffer (PBS, pH 7.4 containing 0.005% Tween 20®). […] The chip was coated with biotinylated target (bio-DLL3) to reach a signal intensity of 1780 RU. […] Each injection was followed by a regeneration step with 16 mM H₃PO₄ for 18 s. […] The bio-DLL3 target used was as described in U.S. 63/550,951, i.e. the extracellular domain (ECD) of human DLL3 protein (Q9NYJ7, Gene ID: 10683, residues 27 to 466; purchased from Evitria) linked via an Avi-tag (for site-directed biotinylation), followed by a 3C protease recognition site, to a Fc knob into hole (hDLL3 ECD-Avi-Fcₖᵢₕ).

T3 sequence (P07724 25-608 limits assumed): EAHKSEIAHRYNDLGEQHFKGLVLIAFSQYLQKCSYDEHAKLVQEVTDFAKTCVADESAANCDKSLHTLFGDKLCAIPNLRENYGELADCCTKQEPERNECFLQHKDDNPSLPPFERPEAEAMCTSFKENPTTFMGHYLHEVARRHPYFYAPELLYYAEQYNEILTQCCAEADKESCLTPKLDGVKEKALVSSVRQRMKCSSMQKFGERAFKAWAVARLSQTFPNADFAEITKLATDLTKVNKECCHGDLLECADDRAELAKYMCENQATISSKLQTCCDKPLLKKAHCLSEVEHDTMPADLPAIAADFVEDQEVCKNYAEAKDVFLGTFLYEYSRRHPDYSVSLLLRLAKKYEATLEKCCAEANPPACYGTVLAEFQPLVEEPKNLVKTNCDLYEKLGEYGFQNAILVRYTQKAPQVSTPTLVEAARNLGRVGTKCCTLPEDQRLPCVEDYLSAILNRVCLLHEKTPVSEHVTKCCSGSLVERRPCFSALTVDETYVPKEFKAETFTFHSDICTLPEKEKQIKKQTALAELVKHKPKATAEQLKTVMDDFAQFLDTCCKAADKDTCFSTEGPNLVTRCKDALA

| Molecule | appearance of animals ([1]; Pb-212 labelled conjugate injected once at 10 μCi, 20 μCi and 30 μCi i.v., WT CD1 mice) | body weight (BW) change ([1]; Pb-212 labelled conjugate injected once at 10 μCi, 20 μCi and 30 μCi, WT CD1 mice, recovered within up to about 10 days) | toxicity ([1]; Pb-212 labelled conjugate, injected dose of 60 μCi, WT CD1 mice) | hematology profile (white blood cells, lymphocytes, monocytes, neutrophils) ([1]; within up to 28 days after injection of 10 μCi, 20 μCi and 30 μCi doses (data not shown)) | serum half-life [2] | Kd [3] | koff [3] | kon [3] | Kd [4] | koff [4] | kon [4] | EC50 [5] | EC50 [6] | Kd [7] | koff [7] | kon [7] |
| --- | --- | --- | --- | --- | --- | --- | --- | --- | --- | --- | --- | --- | --- | --- | --- | --- |
| B1 | animals appeared healthy and active | Minimal weight loss | Toxicity was observed | complete recovery | 12.7 h | – | – | – | – | – | – | – | – | – | – | – |
| B2 | – | – | – | – | – | 336 nM | 0.0271 s⁻¹ | 80400 M⁻¹ s⁻¹ | 95.9 nM | 0.0105 s⁻¹ | 110000 M⁻¹ s⁻¹ | 18.9 nM | 36.6 nM | 1.99 nM | 2.01e-05 s⁻¹ | 10100 M⁻¹ s⁻¹ |
